The test system of this data set is AIM2 (recombinant AIM2FL). Briefly: EMSA. Conditions: 3' biotin; EMSA: 0.1 uM biotinylated 149 bp dsDNA, protein up to 2.5 ug (twofold dilutions), 4 C, 30 min, 5% native PAGE in 45 mM Tris-borate/1 mM EDTA; pull-down: 1 ug ….

With 149 bp HBV dsDNA, the Kd stood at 1.38.

The values above are taken from paper PMC10617567.
